From paper PMC5253658 come the findings set out here.

For one assay, the target named is TLR4 TIR domain, 670-835 (UniProt Q9QUK6). The assay can be described thus: fluorescence titration of FAM-labelled peptide. To be noted: reference: unphosphorylated Y96 peptide; sites Y96.
In the next assay the target is TLR4 (UniProt Q9QUK6). The assay can be described thus: co-immunoprecipitation of SCIMP, TLR4 blot. To be noted: reference: wild type SCIMP; sites Y96.
In assay [1] the target is FAM-labelled phosphorylated SCIMP Y96 peptide (amino acids 90-107) (mouse). Nature of the assay: other fluorescence titration; FAM-labelled SCIMP Y96 peptides (aa 90-107) titrated with unlabelled TLR4-TIR; 25 °C, 30 mM Tris pH 7.4, 150 mM NaCl, 1 mM dithiothreitol; curve fit (Grafit).
For assay [2], the target named is FAM-labelled unphosphorylated SCIMP Y96 peptide (amino acids 90-107) (mouse). Described as above.

pKd: −log10 of the molar value.

Regarding “SCIMP 90-107 (from UniProt Q3UU41) pY96 peptide”, in the assay with TLR4 TIR domain, 670-835, the KD entry is reported as “stronger; reference >2.5 μM”. On to SCIMP (from UniProt Q3UU41) Y96F, for which the “binding against the reference” value with TLR4 was “lost”. For “His-TLR4-TIR (cytoplasmic TIR domain of mouse TLR4, amino acids 670-835) (from UniProt Q9QUK6 670-835) (domain or fragment)”, the pKd in assay [1] is 6.80; in assay [2], below 5.60.

Usually pKd stands for the Kd on a negative log10 scale, so that one unit is a factor of ten. High values mean a small Kd, low ones a large Kd.
